Measured values taken from PMC11044963 (2024).
Where no end group is shown, it is not given here. The star is where a group is joined. FITC = O=C1OC2(c3ccc(O)cc3Oc3cc(O)ccc32)c2ccc(NC(=S)*)cc21

Experiments:
[1] = target: DDB1–DCAF12–DDA1 complex (human | , UniProt Q5T6F0 1-453; Q5T6F0 1-453; Q9BW61 1-102); test: FP
[2] = target: biotinylated DCAF12 (Δ1–78) (human, UniProt Q5T6F0 79-453, biotin); test: SPR

Kd [1] [nM]	koff [2] [s⁻¹]	Binder
60		{FITC}-LHEWVLREGEE [FITC-labeled MAGEA3 peptide]
	0.017	IRKPGESEE [unlabeled CCT5 peptide]
130		{FITC}-IRKPGESEE [FITC-labeled CCT5 peptide]
	0.06	LHEWVLREGEE [unlabeled MAGEA3 peptide]
